Source: the nanobody polyreactivity screen of Harvey et al. (2022)

Assay: yeast display, Sf9 membrane polyspecificity reagent, FACS + sequencing; frameworks hold sequencing errors
Method in brief: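 Sorting gates, low and high (top ~1%), were placed on anti-HA fluorescence to track expression and on streptavidin fluorescence to track reagent binding. A clone's polyreactivity label is taken from the gate it came out of. The reagent was 10% biotinylated, detergent-solubilized Sf9 membrane, applied for 1 hour at 4 °C to galactose-induced yeast display cells.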

Sequence | polyreactivity (PSR sort gate)
QVQLVESGGGLVQAGGSLRLSCAASGRIFTYNAMGWSRQAPGKERELVAANTSSGGSTYYADSVKGRFTISRDYAKNTVYLQMNSLKPEDTAVYYCATVRRGRDYWGQGTQVTVSS | high polyreactivity
QVQLVESGGGLVQAGGSLRLSCAASGRIFTYNPMGWYRQAPGKERELVAAISTRGGTTRYADSVKGRFTISRDNAKNTVYLQMNSLKPEDTAVYSCNAVSRGSRWDGLVRLDYWGQGTQVTVSS | high polyreactivity
QVQLVESGGGLVQAGGSLRLSCAASGRIFTYNPMGWYRQAPGKERELVAVISRRGGSTYYADSVKGRFTISRDNAKNTVYLQMNSLKPEDTAVYYCAADLPSYPYEYWGQGTQVTVSS | low polyreactivity
QVQLVESGGGLVQAGGSLRLSCAASGRIFTYYAMGWYIQAPGKERELVASITGSGGSTDYADSVKGRFTISRDNAKNTVYLQRNSLKPEDTAVYYCAADGLSYGPLYNYDYWGQGTQVTVSS | low polyreactivity
QVQLVESGGGLVQAGGSLRLSCAASGRIFTYYAMGWYRQAPGKERELVAAISSGGSTYYADSGKGRFTISRDNAKNTVSLQMNSLKPEDTAVYYCAADTIYYFPYDYWGQGTQVTVSS | high polyreactivity
QVQLVESGGGLVQAGGSLRLSCAASGRIFTYYAMGWYRQAPGKERELVAAITSGGGSTSYADSVKGRFTISRDNAKNTVYLQMNSLKPEDTAVYYCATRRPFYGHNTYYWYNYWGQGTQVTVSS | high polyreactivity
QVQLVESGGGLVQAGGSLRLSCAASGRIFTYYGMGWYRQAPGKERELVAAISWSGGSTYYADSVKGRFTISRDNAKNTVYLQMNSLKPVDTAVYYCNAASRYGGDYWGQGTQVTVSS | high polyreactivity
QVQLVESGGGLVQAGGSLRLSCAASGRIFVDNAMGWYRQAPGKERELVAAINYSGGGTYYADSVKGRFTISRDNAKNTVYLQMNSLKPEDTAVYYCAADSDSFWGVPSYYWGQGTQVTVSS | low polyreactivity
QVQLVESGGGLVQAGGSLRLSCAASGRIFVFYAMGWYRQAPGKERELVAAITASSTRTYYADSVKGRFTISRDNAKNTFYLQMNSLKPEDTAVYYCAADRYYWGQGTQVTVSS | low polyreactivity
QVQLVESGGGLVQAGGSLRLSCAASGRIFVGNAKGWYRQAPRKERELVAAIDESGGSTYYADSVKGRFTISRDNAKTTVYLQMNSLKPEDTAGYYCNAVWFWLRYYKYEYWGQGTQVTVSS | high polyreactivity
QVQLVESGGGLVQAGGSLRLSCAASGRIFVGNAMGWYRQAPGKERELVAAITRSGSRTYYADSVKGRFTISRDNAKNTVYLQMISLKPEDTAVYYCNAPIRTWPGYDYWGQGTQVTVSS | high polyreactivity
QVQLVESGGGLVQAGGSLRLSCAASGRIFVGNTMGWYRQAPGKERELVAAITRSGGSTYYADSAKGRFTISRDNAKNTVYLQMNSLKPEDTAVYYCAARRRGDYWGQGTQVTVSS | high polyreactivity
QVQLVESGGGLVQAGGSLRLSCAASGRIFVGYAIGWYRQAPGKERELVAAINRSGSSTYYADSVKGRYTISRDNAKNTFYLQMNSLKPEDTAVYYCNARSGNRYGPRYDYWGQGTQVTVSS | high polyreactivity
QVQLVESGGGLVQAGGSLRLSCAASGRIFVGYAMGWYIQAPGKERELVAAINRSGSSTYYADSVKGRFTISRDNAKNTVYLQMNRLKPEDTAVYYCNARSGNRYGPRYDYWGQGTQVTVSS | high polyreactivity
QVQLVESGGGLVQAGGSLRLSCAASGRIFVGYAMGWYRQAPGKERELVAAISSDGGSTYYADSVKGRFTISRDNAKNTVYLQMNSLKPEDTAVYYCNAYYGRFPYYADDYWGQGTQVTVSS | low polyreactivity
QVQLVESGGGLVQAGGSLRLSCAASGRIFVGYYTMGWYRQAPGKERELVASITWGGGRTYYADSVKGRFTISRDNAKNTVYLQMNSLKPEDTAVYYCAAGYPANYYYLGQGTQVTVSS | high polyreactivity
QVQLVESGGGLVQAGGSLRLSCAASGRIFVHNAMGWYRQAPRKERELVAAISWSGGSTYYADSVKGRFTISRDNAKNTVYLQMNSLKPEDTAVYYCNALDPLYFRYDYWGQGTQVTVSS | low polyreactivity
QVQLVESGGGLVQAGGSLRLSCAASGRIFVHYAMGWYRQAPGKERELVAAISRSGGSTYYADSVKGRFTISRDTAKNTVYLQMNSLKPEDTAVYYCNTYPLSQFGPYWSGYDYWGQGTQVTVSS | high polyreactivity
QVQLVESGGGLVQAGGSLRLSCAASGRIFVINAMGWYRQAPGKERELVAAISQSGGSTYYADSVKGRFTISRDNAKNTVYLQMNSLKPEDTAVYYCNALSNVPYDYWGQGTQVTVSS | low polyreactivity
QVQLVESGGGLVQAGGSLRLSCAASGRIFVINAMVWYRQAPGKERELVAGITSSGNTNYADSVKGRFTISRDNAKNTVYLQMNSLNPEDTAVYYCNAQVYLTWLTYWLYYPPNDYWGQGTQVTVSS | low polyreactivity
QVQLVESGGGLVQAGGSLRLSCAASGRIFVIYAMGWYRQAPGKERELVAVINDDGSTNYADSVKGRFTISRDNAKNTVYLQMNSLKPEDTAVYYCAARGGRPLIHHWPWYSWKYDYWGQGTQVTVSS | low polyreactivity
QVQLVESGGGLVQAGGSLRLSCAASGRIFVKYAMGWYRQAPGKERELVAAIRSGGSTYYADSVKGRFTISRDNAKNTVYLQMNRLKPEDTAVYYCAAERNKHHYYTEPYDYWGQGTQVTVSS | low polyreactivity
QVQLVESGGGLVQAGGSLRLSCAASGRIFVKYAMGWYRQARGKESELVAAISKSGGSTYYADSVKGRFTISRDNAKTTVYLQINILKPEDTAVYYCAADEYYQVSAYDYWGQGTQVTVSS | low polyreactivity
QVQLVESGGGLVQAGGSLRLSCAASGRIFVLNAMGWYRQAPGKERELVAAISGSGSRTYYADSVKGRFTISRDNAKNTVYLQMNSLKPEDTAVYYCNTVSRRSEHTYDYWGQGTQVTVSS | high polyreactivity
QVQLVESGGGLVQAGGSLRLSCAASGRIFVLNAMGWYRQAPGKERELVAGITDGGSTNYADSVKGRFTISRDNAKNTVYLEMNSLKPEDTAVYYCAAVVYEYLYDFQAFVEDAGYYWGQGTQVTVSS | low polyreactivity
QVQLVESGGGLVQAGGSLRLSCAASGRIFVLYTMGWYRQAPGKERELVAAISRRGGNTNYADSVKGRFTISRDNAKNTVYLQMNSLKPEDTAVYFCNARWTGARYYYYPMDYWGQGTQVTVSS | high polyreactivity
QVQLVESGGGLVQAGGSLRLSCAASGRIFVPNAMGWYRQAPGKERELVARISRSDGSTYYADSVKGRFTISRDNAKNTVYFPMNSLKPEDTAVYYCAASTTPRWWSFKYYYWGQGTQVTVSS | high polyreactivity
QVQLVESGGGLVQAGGSLRLSCAASGRIFVPYAMGWYRQAPGKERELVAGISWSGGSTYYADSVKGRFTISRDNAKNTVYLQMNNLKPEDTPVYYCAAAKRRRPFDYWGQGTQVTVSS | high polyreactivity
QVQLVESGGGLVQAGGSLRLSCAASGRIFVPYAMGWYRQAPGKVREFVAAISYRGGSTYYADSVKGRFTISRDNAKNTVYLQMNSLKPEDTAVYYCAKVIPYRGKVTLDYWGQGTQVTVSS | low polyreactivity
QVQLVESGGGLVQAGGSLRLSCAASGRIFVQYDMGWYRQAPGKERELVAAINDSGDITYYADSVKGRFTISRDNAKNTVYLQMNSLRPEDTAVYYCAASAAYYGFYKSVTYDYWGQGTQVTVSS | low polyreactivity
